Assay [1] addresses cyno CD3 epsilon (cyno (cynomolgus monkey)) (UniProt Q95LI5). The experiment in a line: sensorgrams with fits, Response (RLU) against Time (s); instrument not named; species not printed on the panel: cyno by the order of the panels (11I-11K human, 11L-11N cyno, after the text's 67 nM and 107 nM).
The target in assay [2] is T1, human CD3 epsilon (human, UniProt P07766 23-126, limits assumed).
T1 construct: Used as a soluble protein target in panning; the construct is not described; also called hCD3; hCD3 epsilon
The experiment in a line: sensorgrams with fits, Response (RLU) against Time (s); instrument not named; species not printed on the panel: human by the order of the panels (11I-11K human, 11L-11N cyno, after the text's 67 nM and 107 nM).

Assay [3] concerns the target CD3 on human CD8+ T cells. The experiment in a line: flow cytometry titration on CD8+ T cells, MFI against [IgG] nM. (In general: Flow cytometry measures light scatter and fluorescence of single cells or particles in a stream.)
Assay [4] deals with CD3 on Jurkat cells. The experiment in a line: flow cytometry titration on Jurkat cells, MFI against [IgG] nM.
Assay [5] concerns the target CD3 on human CD8+ T cells. Nature of the assay: flow cytometry titration, RL1-H MFI against [IgG] nM; cells not named on this panel, the points are those of the CD8+ T-Cell curves of FIGS. 12E-12G.
In assay [6] the target is CD3 on human CD8+ T cells. The experiment in a line: flow cytometry titration, MFI against [IgG] nM; cells not named on this panel, the value and the curve are those of the CD8+ T-Cell curve of FIG. 12F.
The target of assay [7] is T2, cyno CD3 epsilon (cyno (cynomolgus monkey), UniProt Q95LI5 22-117, limits assumed).
T2 construct: Used as a soluble protein target in panning; the construct is not described; also called cCD3; cCD3 epsilon
T2 sequence (looked up): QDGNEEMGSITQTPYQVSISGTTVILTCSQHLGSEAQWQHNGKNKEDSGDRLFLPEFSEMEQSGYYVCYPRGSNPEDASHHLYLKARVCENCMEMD
The experiment in a line: flow cytometry on Expi293 cells overexpressing cynoCD3e, antibody at 100 nM; bar = MFI ratio (OE/parent).

The target of assay [8] is T1, human CD3 epsilon. The experiment in a line: flow cytometry on Expi293 cells overexpressing hCD3e, antibody at 100 nM; bar = MFI ratio (OE/parent), 1 = parent cells.
Assay [9] has as its target T2, cyno CD3 epsilon. Nature of the assay: sensorgrams with fits, Response (RLU) against Time (s); instrument not named; panel shaded grey; species not printed on the panel: cyno by the order of the panels (11I-11K human, 11L-11N cyno, after the text's 67 nM and 107 nM).
Assay [10] deals with T1, human CD3 epsilon. Nature of the assay: method not stated; human CD3 epsilon.

Positions count from the first letter of the chain named.

T1 sequence (P07766 23-126 limits assumed): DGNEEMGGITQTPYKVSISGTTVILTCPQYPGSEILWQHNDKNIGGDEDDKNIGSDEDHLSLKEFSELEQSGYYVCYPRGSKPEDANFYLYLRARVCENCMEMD
Chain of CD3 on human CD8+ T cells (chain, as listed by the source limits assumed): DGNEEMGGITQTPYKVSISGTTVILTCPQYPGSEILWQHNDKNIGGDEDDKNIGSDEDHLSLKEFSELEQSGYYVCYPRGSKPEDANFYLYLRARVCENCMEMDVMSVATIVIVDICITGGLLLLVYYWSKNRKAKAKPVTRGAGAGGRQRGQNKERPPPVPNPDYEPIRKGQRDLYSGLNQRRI

In the case of muSP34 (antibody), the results for the Kd in assay [1] and in [2] were 38 nM and below 0.0019 nM, respectively.
Regarding R&D MAB100 (antibody), the concentration giving a half-maximal response (EC50) amounted to 3.05 nM in [3], 0.537 nM in assay [4] and 3.05 nM in assay [6]. The molecule further showed an EC50 (read off the curve) in [5] of 3 nM.

B1: CD3-252-5 (VHH)
VHH: EVQLVESGGGLVQPGGSLRLSCAASGRISNINIMGWFRQAPGKEREFVAAISWNSGTTRYADSVKGRFTISADNSKNTAYLQMNSLKPEDTAVYYCASQGPGLYGSGSYLRYWGQGTLVTVSS
notes: also called CD3-252-005
As to B1, the binding result in assay [7] is given as “no binding (tested: 100 nM)”; in [8], “binds”.

B2: CD3-252-29 (VHH)
VHH: EVQLVESGGGLVQPGGSLRLSCAASGTTFRINVMGWFRQAPGKEREFVAAITSSGSSTLYADSVKGRFTISADNSKNTAYLQMNSLKPEDTAVYYCARGGGYHRLWGQGTLVTVSS
notes: also called CD3-252-029
In the case of B2, the binding result is reported as “no binding (tested: 100 nM)” in [7] and “binds” in [8].

B3: CD3-252-22 (VHH)
VHH: EVQLVESGGGLVQPGGSLRLSCAASGNIFTRHIMGWFRQAPGKEREFVAAITNGGSTKYADSVKGRFTISADNSKNTAYLQMNSLKPEDTAVYYCARQDYYDSSGHIRYWGQGTLVTVSS
notes: also called CD3-252-022
Regarding B3, the binding result in assay [8] is recorded as “binds”.

B4: CD3-252-24 (VHH)
VHH: EVQLVESGGGLVQPGGSLRLSCAASGITFKRYVMGWFRQAPGKEREFVAAITNGGSTKYADSVKGRFTISADNSKNTAYLQMNSLKPEDTAVYYCARDLSAGPGKAVYWGQGTLVTVSS
notes: also called CD3-252-024
In the case of B4, the binding result in assay [7] is recorded as “no binding (tested: 100 nM)”; in assay [8] it was “binds”.

B5: CD3-252-10 (VHH)
VHH: EVQLVESGGGLVQPGGSLRLSCAASGRSLYDRAYVMGWFRQAPGKEREFVAAINRSGSALYADSVKGRFTISADNSKNTAYLQMNSLKPEDTAVYYCAAKAVTSRDHEWGQGTLVTVSS
notes: also called CD3-252-010
On to B5, for which the binding result is reported as “no binding (tested: 100 nM)” in assay [7] and “binds” in [8].

B6: CD3-56-11 (antibody, V domains shown)
VH: EVQLLESGGGLVQPGGSLRLSCAASGFRFSTYAMNWVRQAPGKGLEWVSGISGSGGSKYHADSVKGRFTISRDNSKNTLYLQMNSLRAEDTAVYYCARDSLTTRGYYYYMDVWGQGTLVTVSS
VL: DIQMTQSQSSLSASVGDRVTITCRASQSIRTSLNWYQQKPGKAPKLLIYAASRLQSGVPSRFSGSGSGTDFTLTISSLQPEDFATYYCQQSYSTLYSFGGGTKVEIK
As for B6, the Kd in assay [2] turned out to be 130 nM; in assay [9], 162000 nM.

B7: CD3-56-05 (antibody, V domains shown)
VH: EVQLLESGGGLVQPGGSLRLSCAASGFTFSSYAMNWVRQAPGKGLEWVSAVSGSGGRTYYADSVKGRFTISRDNSKNTLYLQMNSLRAEDTAVYYCARERATTLDYWGQGTLVTVSS
VL: B6 VL with Q8P, S28T, R30Y, T31S, S32H, A50V, Y92F, L95S, Y96W, S97T
notes: the text speaks of CD3 epsilon IgGs from a Fab library on the DP47 framework; also called CD3-56-5; CD-3-56-5
As to B7, binding in assay [10] was characterised by a dissociation constant (Kd) of 67 nM.

A word on the Kd: it is the free concentration of one partner at which half of the binding sites on the other are occupied at equilibrium, for simple one-to-one binding. Broadly, the EC50 is the concentration giving half of the maximal effect. Low values mean a more potent agent, high ones a less potent agent. As a reminder, the EC50 (read off the curve) is the concentration at which the effect is half-maximal. Low readings indicate greater potency, high ones weaker potency.

The record behind these values is patent US20220348659A1 (TWIST BIOSCIENCE, published 2022).
